Consider 10 molecules from patent US20250333496A1 (Novo Nordisk, published 2025).

Like-named read-outs stand apart in the source and are kept apart here.

Test [1] addresses T1, human IL-6 (mature hIL-6) (human, UniProt P05231 30-212). Description: cell-based or functional assay.
For test [2], the target named is T1, human IL-6 (mature hIL-6). Description: cell-based or functional assay. This is another data set of the same source.
Test [3] has as its target T1, human IL-6 (mature hIL-6). Description: cell-based or functional assay. This is another data set of the same source.
Test [4] has as its target T1, human IL-6 (mature hIL-6). The test can be described thus: cell-based or functional assay. This is another data set of the same source.
The target of test [5] is T2, recombinant human HPC4-tagged IL-6 (human, UniProt P05231 30-212).
T2 construct: captured on an anti-HPC4 antibody in SPR; also called HPC4-human IL6
T2 sequence (P05231 other isoform, or with tags, fused parts or gaps limits assumed): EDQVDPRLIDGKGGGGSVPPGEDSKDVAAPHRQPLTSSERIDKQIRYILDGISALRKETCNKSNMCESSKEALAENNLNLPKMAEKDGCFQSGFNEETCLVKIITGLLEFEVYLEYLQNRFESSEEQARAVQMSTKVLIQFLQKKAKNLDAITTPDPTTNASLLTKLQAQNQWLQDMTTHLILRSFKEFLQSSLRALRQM
The test can be described thus: SPR, HPC4-IL-6 captured on anti-HPC4 antibody, VHH injected, 25 C, 1:1 model. The method, then:
Binding of purified anti-IL-6 VHHs to recombinant human HPC4-tagged IL-6 (SEQ ID NO: 98) was probed by Surface Plasmon Resonance (SPR).
IL-6 was captured at a flow rate of 10 μL/min for 30 seconds.
Subsequently, concentration series of VHH polypeptides according to Table 33 were injected at a flow rate of 50 μL/min for 200 seconds to allow for binding to […] followed by 600 seconds running buffer (10 mM HEPES, 150 mM NaCl, 5 mM CaCl₂, 0.05% (v/v) Surfactant P20, 1 mg/mL bovine serum albumin, pH 7.4) injection allowing dissociation from IL-6. The running buffer was also used for dilution of anti-IL-6 VHHs and IL-6. Regeneration of the chip was achieved using a regeneration buffer consisting of 50 mM EDTA in running buffer without CaCl₂, 30 seconds contact time, and a 30 μL/min flow rate applied twice to the surface. The binding data were collected at 25° C. at either a Biacore instrument (Cytiva AB, Uppsala) or a Bruker SPR32 (Bruker Daltonics). Data were analysed according to a 1:1 model using either BiaEvaluation or Biacore Insight Evaluation (Cytiva AB, Uppsala) or Bruker Analyser (Bruker Daltonics).
(In general: SPR reads the build-up and loss of mass on a sensor chip optically.)

Test [6] addresses T1, human IL-6 (mature hIL-6). Description: SPR (format not stated).
In test [7] the target is T1, human IL-6 (mature hIL-6). The test can be described thus: cell-based or functional assay. This is another data set of the same source.

T1 sequence (P05231 30-212): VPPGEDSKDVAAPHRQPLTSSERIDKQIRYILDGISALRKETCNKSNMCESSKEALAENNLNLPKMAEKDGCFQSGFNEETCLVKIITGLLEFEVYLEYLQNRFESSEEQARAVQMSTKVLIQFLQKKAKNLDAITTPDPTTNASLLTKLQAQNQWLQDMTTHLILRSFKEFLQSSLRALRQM

B1: Reference Anti-IL6 Fab (Fab, V domains shown)
VH: EVQLVESGGGLVQPGGSLRLSCAASGFTISSNYMIWVRQAPGKGLEWVSDLYYYAGDTYYADSVKGRFTMSRDISKNTVYLQMNSLRAEDTAVYYCARWADDHPPWIDLWGRGTLVTVSS
VL: DIQMTQSPSTLSASVGDRVTITCRASQGISSWLAWYQQKPGKAPKVLIYKASTLESGVPSRFSGSGSGTEFTLTISSLQPDDFATYYCQQSWLGGSFGQGTKLEIKR
As for B1, in test [1], the “IC 50 (nM), reporter gene assay, 0% HSA” value is 0.026 nM and the “IC 50 (nM), reporter gene assay, 1% HSA” value was found to be 0.017 nM. Besides, in test [2], the “IC50 (nM), STAT3-luc reporter gene assay” value is 0.039 nM; the “Relative IC50 to Polypeptide_29” value stood at 0.9 fold; the “Relative IC50 to Reference Anti-IL6 Fab” value was found to be 1 fold.

B2: anti-IL-6 VHH building block 7G05 SIA comparator (VHH)
VHH: QVKLEESGGGLVQPGGSLRLSCAASGSISRFNIMGWYRQAPGKQRELVADITNGGTTMYADSVKGRFTISRDNTKNTVYLQMNSLKPEDTAVYYCHTYYPTTGFDDWGQGAQVTVSS
B2: in test [2], the “IC50 (nM), STAT3-luc reporter gene assay” value is 0.115 nM; the “Relative IC50 to Polypeptide_29” value was determined as 2.6 fold; the “Relative IC50 to Reference Anti-IL6 Fab” value is 2.9 fold.

B3: Compound 14 (VHH)
VHH: EVQLVESGGGLVQPGGSLKLSCTTSGRRFSEYAVGWFRQAPGKEREFVADIGEQAENTWYAESVLGRFTISRDDAKNTVYLEMDGLKPEDTAVYYCAADKYGVGGNAQGYYDSWGQGTQVTVSS
modifications: Chem. 24 (C16 fatty acid substituent) on Cys in position 4 of the extension (SEQ ID NO: 161)
For B3, in test [3], the “IC50 (nM) mean, STAT3-luc reporter gene assay” value (“IC50 (nM) mean” below) was 0.041 nM and the “Relative IC50 to Polypeptide_29” value came out at 1.1 fold.

B4: Compound 19 (VHH)
VHH: B3 VHH
modifications: Chem. 27 (C20 fatty acid substituent) on Cys in position 4 and on Cys in position 6 of the extension (SEQ ID NO: 162)
B4: in test [3], the “IC50 (nM) mean” value turned out to be 0.042 nM and the “Relative IC50 to Polypeptide_29” value came out at 1.1 fold.

B5: Compound 15 (VHH)
VHH: B3 VHH
modifications: Chem. 26 (C18 fatty acid substituent) on Cys in position 4 of the extension (SEQ ID NO: 161)
As for B5, in test [3], the “IC50 (nM) mean” value was determined as 0.046 nM and the “Relative IC50 to Polypeptide_29” value came to 1.3 fold.

B6: Compound 17 (VHH)
VHH: B3 VHH
modifications: Chem. 24 (C16 fatty acid substituent) on Cys in position 4 and on Cys in position 6 of the extension (SEQ ID NO: 162)
Turning to B6, in test [3], the “IC50 (nM) mean” value turned out to be 0.04 nM and the “Relative IC50 to Polypeptide_29” value was 1 fold.

B7: Compound 16 (VHH)
VHH: B3 VHH
modifications: Chem. 27 (C20 fatty acid substituent) on Cys in position 4 of the extension (SEQ ID NO: 161)
Take B7: in test [3], the “IC50 (nM) mean” value is 0.054 nM and the “Relative IC50 to Polypeptide_29” value turned out to be 1.6 fold.

B8: Compound 18 (VHH)
VHH: B3 VHH
modifications: Chem. 26 (C18 fatty acid substituent) on Cys in position 4 and on Cys in position 6 of the extension (SEQ ID NO: 162)
In the case of B8, in test [3], the “IC50 (nM) mean” value is 0.043 nM and the “Relative IC50 to Polypeptide_29” value stood at 1.2 fold.

B9: Polypeptide_34 (VHH)
VHH: EVQLVESGGGLVQAGGSLRLSCTASGGTFSEYAMAWFRQAPGKEREFVTDIGESGGTWYADSVKGRFTISRDNAKNTVYLQMNSLRPEDTAVYYCAADSYGVGGGAERYYDSWGQGTQVTVSS
notes: VHH_1.8 with C-terminal His tag extension E1; also called [VHH_1.8]-E1
For orientation: Kd means the equilibrium constant for the complex coming apart. What is called kon is the rate constant with which the complex forms. In the case of B9, in test [1], the “IC 50 (nM), reporter gene assay, 0% HSA” value worked out at 0.066 nM and the “IC 50 (nM), reporter gene assay, 1% HSA” value came out at 0.046 nM. In addition, in test [4], the “Reporter gene-assay [pM]” value turned out to be 43.6 pM. Besides, in test [5], the Kd was 0.0136 nM and the kon is 2.88e+07 M⁻¹ s⁻¹. In test [6], this molecule registered a Kd of about 0.0136 nM.

B10: Polypeptide_19 (VHH)
VHH: QLQLVESGGGWVQPGGSLKLSCTTSGRTFSSYAVGWFRQAPGKEREFVADIGENADNTWYAHSVKGRFTISRDNAKNTVYLQMNSLKPEDTAVYYCAADSYGVGGGAQGYYDSWGQGTQVTVSS
notes: VHH_1.11 with C-terminal His tag extension E1; also called [VHH_1.11]-E1
Consider B10, for which, in test [7], the “IC50 (nM), STAT3-luc reporter gene assay” value came out at 0.185 nM and the “Relative IC50 to Reference Polypeptide_29” value came to 5.4 fold. Further, in test [1], the “IC 50 (nM), reporter gene assay, 0% HSA” value was found to be 0.117 nM and the “IC 50 (nM), reporter gene assay, 1% HSA” value was found to be 0.064 nM. Moreover, the “Reporter gene-assay [pM]” value in test [4] came to 40.6 pM. In test [6], this molecule registered a dissociation constant Kd of 0.001 nM.
